From US10597433B2, “Peptides and combination of peptides for use in immunotherapy against small cell lung cancer and other cancers” (Immatics Biotechnologies GmbH, priority 2015, dated 2020)

molecular target: HLA-A*02:01 (Homo sapiens, UniProt P04439, D140Y/D185E/D98H/E176V/E277Q/G131W/G231S/I119V/I121R/I166T/I218V/L300P/L318F/N151K/N90K/P208A/P217A/Q86G/Q94H/R138H/R169H/T345S); assay: MHC binding assay: UV-ligand exchange with ELISA detection of β2m of stabilized MHC complexes; settings: binding to HLA-A*02:01
Excerpt: Candidate peptides for T cell based therapies according to the present invention were further tested for their MHC binding capacity (affinity). The individual peptide-MHC complexes were produced by UV-ligand exchange, where a UV-sensitive peptide is cleaved upon UV-irradiation, and exchanged with the peptide of interest as analyzed. Only peptide candidates that can effectively bind and stabilize the peptide-receptive MHC molecules prevent dissociation of the MHC complexes. To determine the yield of the exchange reaction, an ELISA was performed based on the detection of the light chain (β2m) of stabilized MHC complexes. The assay was performed as generally described in Rodenko et al. (Rodenko et al., 2006).
96 well MAXISorp plates (NUNC) were coated over night with 2 μg/ml streptavidin in PBS at room temperature, washed 4× and blocked for 1 h at 37° C. in 2% BSA containing blocking buffer. Refolded HLA-A*02:01/MLA-001 monomers served as standards, covering the range of 15-500 ng/ml. Peptide-MHC monomers of the UV-exchange reaction were diluted 100 fold in blocking buffer. Samples were incubated for 1 h at 37° C., washed four times, incubated with 2 μg/ml HRP conjugated anti-β2m for 1 h at 37° C., washed again and detected with TMB solution that is stopped with […]. Absorption was measured at 450 nm. Candidate peptides that show a high exchange yield (preferably higher than 50%, most preferred higher than 75%) are generally preferred for a generation and production of antibodies or fragments thereof, and/or T cell receptors or fragments thereof, as they show sufficient avidity to the MHC molecules and prevent dissociation of the MHC complexes.

| Substance | Peptide exchange (MHC class I binding score, peptide exchange yield) |
| --- | --- |
| 1 (AMLEEVNYI; listed as Homo sapiens) [compound 1] | +++ (≥50 = +++) |
| 3 (VLAEIDPKQLV; listed as Homo sapiens) [compound 3] | +++ (≥50 = +++) |
| 5 (SLQSLIISV; listed as Homo sapiens) [compound 5] | ++++ (≥75% = ++++) |
| 7 (GLLGDIAIHL; listed as Homo sapiens) [compound 7] | +++ (≥50 = +++) |
| 9 (AAAPGEALHTA; listed as Homo sapiens) [compound 9] | ++ (≥20% = ++) |
| 12 (MLFEGLDLVSA; listed as Homo sapiens) [compound 12] | +++ (≥50 = +++) |
| 13 (FLTAFLVQI; listed as Homo sapiens) [compound 13] | +++ (≥50 = +++) |
| 14 (ILIETKLVL; listed as Homo sapiens) [compound 14] | +++ (≥50 = +++) |
| 15 (SLLTAISEV; listed as Homo sapiens) [compound 15] | +++ (≥50 = +++) |
| 16 (VILDLPLVI; listed as Homo sapiens) [compound 16] | +++ (≥50 = +++) |
| 17 (SLMLVTVEL; listed as Homo sapiens) [compound 17] | +++ (≥50 = +++) |
| 18 (ALGEISVSV; listed as Homo sapiens) [compound 18] | +++ (≥50 = +++) |
| 19 (VLLTTAVEV; listed as Homo sapiens) [compound 19] | +++ (≥50 = +++) |
| 20 (MLDEILLQL; listed as Homo sapiens) [compound 20] | +++ (≥50 = +++) |
| 21 (TMEEMIFEV; listed as Homo sapiens) [compound 21] | +++ (≥50 = +++) |
| 22 (LLPEKSWEI; listed as Homo sapiens) [compound 22] | +++ (≥50 = +++) |
| 23 (YQIDTVINL; listed as Homo sapiens) [compound 23] | +++ (≥50 = +++) |
| 24 (FLMEEVHMI; listed as Homo sapiens) [compound 24] | +++ (≥50 = +++) |
| 25 (GLSETILAV; listed as Homo sapiens) [compound 25] | ++++ (≥75% = ++++) |
| 26 (KMLDEAVFQV; listed as Homo sapiens) [compound 26] | ++++ (≥75% = ++++) |
| 27 (SLDIITITV; listed as Homo sapiens) [compound 27] | ++++ (≥75% = ++++) |
| 28 (ILVSQLEQL; listed as Homo sapiens) [compound 28] | ++++ (≥75% = ++++) |
| 30 (KMLGLTVSL; listed as Homo sapiens) [compound 30] | +++ (≥50 = +++) |
| 31 (RLLQDPVGV; listed as Homo sapiens) [compound 31] | ++++ (≥75% = ++++) |

| Substance | Peptide exchange (MHC class I binding score, peptide exchange yield) |
| --- | --- |
| 32 (ALTSLELEL; listed as Homo sapiens) [compound 32] | +++ (≥50 = +++) |
| 34 (LVFEGIMEV; listed as Homo sapiens) [compound 34] | +++ (≥50 = +++) |
| 35 (FMGDVFINV; listed as Homo sapiens) [compound 35] | ++++ (≥75% = ++++) |
| 36 (RMDGAVTSV; listed as Homo sapiens) [compound 36] | +++ (≥50 = +++) |
| 37 (SLFYNELHYV; listed as Homo sapiens) [compound 37] | +++ (≥50 = +++) |
| 38 (GLISSLNEI; listed as Homo sapiens) [compound 38] | ++++ (≥75% = ++++) |
| 40 (GLLEVQVEV; listed as Homo sapiens) [compound 40] | +++ (≥50 = +++) |
| 41 (KAYQELLATV; listed as Homo sapiens) [compound 41] | +++ (≥50 = +++) |
| 42 (GLLEDERALQL; listed as Homo sapiens) [compound 42] | +++ (≥50 = +++) |
| 43 (YLWSEVFSM; listed as Homo sapiens) [compound 43] | +++ (≥50 = +++) |
| 44 (ALIVGIPSV; listed as Homo sapiens) [compound 44] | ++++ (≥75% = ++++) |
| 45 (SLSGEIILHSV; listed as Homo sapiens) [compound 45] | ++ (≥20% = ++) |
| 46 (ALWVAVPKA; listed as Homo sapiens) [compound 46] | +++ (≥50 = +++) |
| 47 (GLLEALLKI; listed as Homo sapiens) [compound 47] | +++ (≥50 = +++) |
| 48 (SLIGLDLSSV; listed as Homo sapiens) [compound 48] | +++ (≥50 = +++) |
| 49 (RLALNTPKV; listed as Homo sapiens) [compound 49] | ++ (≥20% = ++) |
| 50 (FLLSQIVAL; listed as Homo sapiens) [compound 50] | +++ (≥50 = +++) |
| 51 (ILDEAGVKYFL; listed as Homo sapiens) [compound 51] | +++ (≥50 = +++) |
| 52 (ILASFMLTGV; listed as Homo sapiens) [compound 52] | ++++ (≥75% = ++++) |
| 53 (LLSEEHITL; listed as Homo sapiens) [compound 53] | ++++ (≥75% = ++++) |
| 54 (HLFDIILTSV; listed as Homo sapiens) [compound 54] | ++++ (≥75% = ++++) |
| 55 (LLIADNPQL; listed as Homo sapiens) [compound 55] | ++++ (≥75% = ++++) |
| 56 (SLFSQMGSQYEL; listed as Homo sapiens) [compound 56] | +++ (≥50 = +++) |
